In patent publication US20190160187A1 (CORNELL UNIVERSITY, published 2019):

Target: the molecule itself
Assay: Western blot, HEK 293T-orf6 cells (self-association into a homotetramer)
Protocol: To assess ALDH2 tetramer formation from AAVrh.10hALDH2 directed expression of the human ALDH2 protein in vitro, HEK 293T cells were infected with the AAVrh.10hALDH2 vector or a control AAVrh.10-hα1 AT vector, and supernatant was harvested 72 hours later. Human ALDH2 tetramer formation in supernatant was evaluated by SDS-PAGE and Western analysis with an anti-HA antibody.

B1: human ALDH2 with C-terminal hemagglutinin (HA) tag, expressed from the AAVrh.10hALDH2 vector (enzyme)
chain: SAAATQAVPAPNQQPEVFCNQIFINNEWHDAVSRKTFPTVNPSTGEVICQVAEGDKEDVDKAVKAARAAFQLGSPWRRMDASHRGRLLNRLADLIERDRTYLAALETLDNGKPYVISYLVDLDMVLKCLRYYAGWADKYHGKTIPIDGDFFSYTRHEPVGVCGQIIPWNFPLLMQAWKLGPALATGNVVVMKVAEQTPLTALYVANLIKEAGFPPGVVNIVPGFGPTAGAAIASHEDVDKVAFTGSTEIGRVIQVAAGSSNLKRVTLELGGKSPNIIMSDADMDWAVEQAHFALFFNQGQCCCAGSRTFVQEDIYDEFVERSVARAKSRVVGNPFDSKTEQGPQVDETQFKKILGYINTGKQEGAKLLCGGGIAADRGYFIQPTVFGDVQDGMTIAKEEIFGPVMQILKFKTIEEVVGRANNSTYGLAAAVFTKDLDKANYLSQALQAGTVWVNCYDVFGAQSPFGGYKMSGSGRELGEYGLQAYTEVKTVTVKVPQKNS
notes: also called human aldehyde dehydrogenase 2; hALDH2-HA; not shown: C-terminal hemagglutinin (HA) tag
B1: binds.
